Results: publication PMC8115922 (Science Advances, 2021)

T1: SAMD1-WH(27-105) (Homo sapiens, UniProt Q6SPF0 27-105)
T1 sequence: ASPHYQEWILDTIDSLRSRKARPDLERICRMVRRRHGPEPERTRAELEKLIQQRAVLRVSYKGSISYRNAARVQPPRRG

B1: WT SAMD1-SAM (construct of the solution experiments not stated) (domain or fragment, human, UniProt Q6SPF0 462-530, looked up)
chain: WTVMDVVEYFTEAGFPEQATAFQEQEIDGKSLLLMQRTDVLTGLSIRLGPALKIYEHHIKVLQQGHFED
B2: 13-bp CpG DNA (dsDNA)
DNA 1: ACCTGCGCACCAT
DNA 2: ATGGTGCGCAGGT

Experiments:
SEC + native MS = biological target: the molecule itself; assay: SEC + native MS
SAMD1-WH(27-105) = biological target: T1, SAMD1-WH(27-105); assay: X-ray crystallography

Binder | stoichiometry N (SEC + native MS) | binding result (SAMD1-WH(27-105))
B1 | 5 | 
B2 |  | binds
